Results reported in paper PMC4310633 (Biochemistry, 2014).

Target: the molecule itself
Assay: AUC

Row | Protein | stoichiometry N
1 | ligand binding domain (LBD) of the GluN1 subunit of the NMDA receptor (domain or fragment) not shown | 2
2 | ligand binding domain (LBD) of the GluN2A subunit of the NMDA receptor (domain or fragment) not shown | 2
